# Measurements as given in patent US11130793B2, “GLP-1/GLP-2 dual agonists” (Zealand Pharma A/S, priority 2016, dated 2021).
# Square brackets hold non-standard residues; d marks the D form. Aib = CC(C)(N)C(=O)O
# T1: human GLP-2 receptor (hGLP2-R) (human, UniProt O95838)
# T1 sequence: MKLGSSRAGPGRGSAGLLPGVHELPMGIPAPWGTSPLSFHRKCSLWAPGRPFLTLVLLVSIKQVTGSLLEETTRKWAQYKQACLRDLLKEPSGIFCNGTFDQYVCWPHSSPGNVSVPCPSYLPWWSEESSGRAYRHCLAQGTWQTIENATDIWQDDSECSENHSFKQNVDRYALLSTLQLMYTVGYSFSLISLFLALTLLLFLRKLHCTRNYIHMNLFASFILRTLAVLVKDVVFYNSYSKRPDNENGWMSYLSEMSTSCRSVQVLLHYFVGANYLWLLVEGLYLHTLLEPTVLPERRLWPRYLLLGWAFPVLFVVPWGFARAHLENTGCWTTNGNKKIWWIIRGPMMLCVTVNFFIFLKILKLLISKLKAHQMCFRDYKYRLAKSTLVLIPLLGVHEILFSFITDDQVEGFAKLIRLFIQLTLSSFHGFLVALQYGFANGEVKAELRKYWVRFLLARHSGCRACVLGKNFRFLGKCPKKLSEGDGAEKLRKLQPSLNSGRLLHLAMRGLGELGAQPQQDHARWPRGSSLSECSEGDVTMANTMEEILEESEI
# How the values were obtained:
# [1] = target: human glucagon-like peptide 1 receptor (GLP-1R) (human, UniProt P43220); test: cell-based or functional assay
# [2] = target: T1, human GLP-2 receptor (hGLP2-R); test: cell-based or functional assay
EC50 GLP-1 (nM); cAMP AlphaScreen [1],EC50 GLP-2 (nM); cAMP AlphaScreen [2],Binder
0.005 nM,0.15 nM,H-H[Aib]EGTFTSELATILDEQAARDFIAWLIAQKITD-OH (SMILES CC[C@H](C)[C@H](NC(=O)[C@H](CC(C)C)NC(=O)[C@H](Cc1c[nH]c2ccccc12)NC(=O)[C@H](C)NC(=O)[C@@H](NC(=O)[C@H](Cc1ccccc1)NC(=O)[C@H](CC(=O)O)NC(=O)[C@H](CCCNC(=N)N)NC(=O)[C@H](C)NC(=O)[C@H](C)NC(=O)[C@H](CCC(N)=O)NC(=O)[C@H](CCC(=O)O)NC(=O)[C@H](CC(=O)O)NC(=O)[C@H](CC(C)C)NC(=O)[C@@H](NC(=O)[C@@H](NC(=O)[C@H](C)NC(=O)[C@H](CC(C)C)NC(=O)[C@H](CCC(=O)O)NC(=O)[C@H](CO)NC(=O)[C@@H](NC(=O)[C@H](Cc1ccccc1)NC(=O)[C@@H](NC(=O)CNC(=O)[C@H](CCC(=O)O)NC(=O)C(C)(C)NC(=O)[C@@H](N)Cc1c[nH]cn1)[C@@H](C)O)[C@@H](C)O)[C@@H](C)O)[C@@H](C)CC)[C@@H](C)CC)C(=O)N[C@@H](C)C(=O)N[C@@H](CCC(N)=O)C(=O)N[C@@H](CCCCN)C(=O)N[C@H](C(=O)N[C@H](C(=O)N[C@@H](CC(=O)O)C(=O)O)[C@@H](C)O)[C@@H](C)CC) [Compound 19]
0.049 nM,0.11 nM,H-H[Aib]EGTFTSELATILDEQAARDFIAWLHQHKITD-OH (SMILES CC[C@H](C)[C@H](NC(=O)[C@H](Cc1ccccc1)NC(=O)[C@H](CC(=O)O)NC(=O)[C@H](CCCNC(=N)N)NC(=O)[C@H](C)NC(=O)[C@H](C)NC(=O)[C@H](CCC(N)=O)NC(=O)[C@H](CCC(=O)O)NC(=O)[C@H](CC(=O)O)NC(=O)[C@H](CC(C)C)NC(=O)[C@@H](NC(=O)[C@@H](NC(=O)[C@H](C)NC(=O)[C@H](CC(C)C)NC(=O)[C@H](CCC(=O)O)NC(=O)[C@H](CO)NC(=O)[C@@H](NC(=O)[C@H](Cc1ccccc1)NC(=O)[C@@H](NC(=O)CNC(=O)[C@H](CCC(=O)O)NC(=O)C(C)(C)NC(=O)[C@@H](N)Cc1c[nH]cn1)[C@@H](C)O)[C@@H](C)O)[C@@H](C)O)[C@@H](C)CC)C(=O)N[C@@H](C)C(=O)N[C@@H](Cc1c[nH]c2ccccc12)C(=O)N[C@@H](CC(C)C)C(=O)N[C@@H](Cc1c[nH]cn1)C(=O)N[C@@H](CCC(N)=O)C(=O)N[C@@H](Cc1c[nH]cn1)C(=O)N[C@@H](CCCCN)C(=O)N[C@H](C(=O)N[C@H](C(=O)N[C@@H](CC(=O)O)C(=O)O)[C@@H](C)O)[C@@H](C)CC) [Compound 21]
0.006 nM,0.026 nM,H-H[Aib]EGTFTSELATILDEQAARDFIAWLIKHKITD-OH (SMILES CC[C@H](C)[C@H](NC(=O)[C@H](Cc1ccccc1)NC(=O)[C@H](CC(=O)O)NC(=O)[C@H](CCCNC(=N)N)NC(=O)[C@H](C)NC(=O)[C@H](C)NC(=O)[C@H](CCC(N)=O)NC(=O)[C@H](CCC(=O)O)NC(=O)[C@H](CC(=O)O)NC(=O)[C@H](CC(C)C)NC(=O)[C@@H](NC(=O)[C@@H](NC(=O)[C@H](C)NC(=O)[C@H](CC(C)C)NC(=O)[C@H](CCC(=O)O)NC(=O)[C@H](CO)NC(=O)[C@@H](NC(=O)[C@H](Cc1ccccc1)NC(=O)[C@@H](NC(=O)CNC(=O)[C@H](CCC(=O)O)NC(=O)C(C)(C)NC(=O)[C@@H](N)Cc1c[nH]cn1)[C@@H](C)O)[C@@H](C)O)[C@@H](C)O)[C@@H](C)CC)C(=O)N[C@@H](C)C(=O)N[C@@H](Cc1c[nH]c2ccccc12)C(=O)N[C@@H](CC(C)C)C(=O)N[C@H](C(=O)N[C@@H](CCCCN)C(=O)N[C@@H](Cc1c[nH]cn1)C(=O)N[C@@H](CCCCN)C(=O)N[C@H](C(=O)N[C@H](C(=O)N[C@@H](CC(=O)O)C(=O)O)[C@@H](C)O)[C@@H](C)CC)[C@@H](C)CC) [Compound 16]
0.006 nM,0.066 nM,H-H[Aib]EGTFTSELATILDEQAARDFIAWLIRHKITD-OH (SMILES CC[C@H](C)[C@H](NC(=O)[C@H](Cc1ccccc1)NC(=O)[C@H](CC(=O)O)NC(=O)[C@H](CCCNC(=N)N)NC(=O)[C@H](C)NC(=O)[C@H](C)NC(=O)[C@H](CCC(N)=O)NC(=O)[C@H](CCC(=O)O)NC(=O)[C@H](CC(=O)O)NC(=O)[C@H](CC(C)C)NC(=O)[C@@H](NC(=O)[C@@H](NC(=O)[C@H](C)NC(=O)[C@H](CC(C)C)NC(=O)[C@H](CCC(=O)O)NC(=O)[C@H](CO)NC(=O)[C@@H](NC(=O)[C@H](Cc1ccccc1)NC(=O)[C@@H](NC(=O)CNC(=O)[C@H](CCC(=O)O)NC(=O)C(C)(C)NC(=O)[C@@H](N)Cc1c[nH]cn1)[C@@H](C)O)[C@@H](C)O)[C@@H](C)O)[C@@H](C)CC)C(=O)N[C@@H](C)C(=O)N[C@@H](Cc1c[nH]c2ccccc12)C(=O)N[C@@H](CC(C)C)C(=O)N[C@H](C(=O)N[C@@H](CCCNC(=N)N)C(=O)N[C@@H](Cc1c[nH]cn1)C(=O)N[C@@H](CCCCN)C(=O)N[C@H](C(=O)N[C@H](C(=O)N[C@@H](CC(=O)O)C(=O)O)[C@@H](C)O)[C@@H](C)CC)[C@@H](C)CC) [Compound 17]
0.006 nM,0.054 nM,H-H[Aib]EGTFTSELATILDEQAARDFIAWLISHKITD-OH (SMILES CC[C@H](C)[C@H](NC(=O)[C@H](Cc1ccccc1)NC(=O)[C@H](CC(=O)O)NC(=O)[C@H](CCCNC(=N)N)NC(=O)[C@H](C)NC(=O)[C@H](C)NC(=O)[C@H](CCC(N)=O)NC(=O)[C@H](CCC(=O)O)NC(=O)[C@H](CC(=O)O)NC(=O)[C@H](CC(C)C)NC(=O)[C@@H](NC(=O)[C@@H](NC(=O)[C@H](C)NC(=O)[C@H](CC(C)C)NC(=O)[C@H](CCC(=O)O)NC(=O)[C@H](CO)NC(=O)[C@@H](NC(=O)[C@H](Cc1ccccc1)NC(=O)[C@@H](NC(=O)CNC(=O)[C@H](CCC(=O)O)NC(=O)C(C)(C)NC(=O)[C@@H](N)Cc1c[nH]cn1)[C@@H](C)O)[C@@H](C)O)[C@@H](C)O)[C@@H](C)CC)C(=O)N[C@@H](C)C(=O)N[C@@H](Cc1c[nH]c2ccccc12)C(=O)N[C@@H](CC(C)C)C(=O)N[C@H](C(=O)N[C@@H](CO)C(=O)N[C@@H](Cc1c[nH]cn1)C(=O)N[C@@H](CCCCN)C(=O)N[C@H](C(=O)N[C@H](C(=O)N[C@@H](CC(=O)O)C(=O)O)[C@@H](C)O)[C@@H](C)CC)[C@@H](C)CC) [Compound 18]
0.28 nM,0.042 nM,H-H[Aib]EGSFTSELATILDEQAARDFIAWLHAHKITD-OH (SMILES CC[C@H](C)[C@H](NC(=O)[C@H](Cc1ccccc1)NC(=O)[C@H](CC(=O)O)NC(=O)[C@H](CCCNC(=N)N)NC(=O)[C@H](C)NC(=O)[C@H](C)NC(=O)[C@H](CCC(N)=O)NC(=O)[C@H](CCC(=O)O)NC(=O)[C@H](CC(=O)O)NC(=O)[C@H](CC(C)C)NC(=O)[C@@H](NC(=O)[C@@H](NC(=O)[C@H](C)NC(=O)[C@H](CC(C)C)NC(=O)[C@H](CCC(=O)O)NC(=O)[C@H](CO)NC(=O)[C@@H](NC(=O)[C@H](Cc1ccccc1)NC(=O)[C@H](CO)NC(=O)CNC(=O)[C@H](CCC(=O)O)NC(=O)C(C)(C)NC(=O)[C@@H](N)Cc1c[nH]cn1)[C@@H](C)O)[C@@H](C)O)[C@@H](C)CC)C(=O)N[C@@H](C)C(=O)N[C@@H](Cc1c[nH]c2ccccc12)C(=O)N[C@@H](CC(C)C)C(=O)N[C@@H](Cc1c[nH]cn1)C(=O)N[C@@H](C)C(=O)N[C@@H](Cc1c[nH]cn1)C(=O)N[C@@H](CCCCN)C(=O)N[C@H](C(=O)N[C@H](C(=O)N[C@@H](CC(=O)O)C(=O)O)[C@@H](C)O)[C@@H](C)CC) [Compound 22]
0.012 nM,0.26 nM,H-H[Aib]EGTFTSELATILDEQAARDFIAWLIAYKITD-OH (SMILES CC[C@H](C)[C@H](NC(=O)[C@H](CC(C)C)NC(=O)[C@H](Cc1c[nH]c2ccccc12)NC(=O)[C@H](C)NC(=O)[C@@H](NC(=O)[C@H](Cc1ccccc1)NC(=O)[C@H](CC(=O)O)NC(=O)[C@H](CCCNC(=N)N)NC(=O)[C@H](C)NC(=O)[C@H](C)NC(=O)[C@H](CCC(N)=O)NC(=O)[C@H](CCC(=O)O)NC(=O)[C@H](CC(=O)O)NC(=O)[C@H](CC(C)C)NC(=O)[C@@H](NC(=O)[C@@H](NC(=O)[C@H](C)NC(=O)[C@H](CC(C)C)NC(=O)[C@H](CCC(=O)O)NC(=O)[C@H](CO)NC(=O)[C@@H](NC(=O)[C@H](Cc1ccccc1)NC(=O)[C@@H](NC(=O)CNC(=O)[C@H](CCC(=O)O)NC(=O)C(C)(C)NC(=O)[C@@H](N)Cc1c[nH]cn1)[C@@H](C)O)[C@@H](C)O)[C@@H](C)O)[C@@H](C)CC)[C@@H](C)CC)C(=O)N[C@@H](C)C(=O)N[C@@H](Cc1ccc(O)cc1)C(=O)N[C@@H](CCCCN)C(=O)N[C@H](C(=O)N[C@H](C(=O)N[C@@H](CC(=O)O)C(=O)O)[C@@H](C)O)[C@@H](C)CC) [Compound 20]
